Data reported in the supplement of paper PMC12636428.

These sequences were tested on Saccharomyces cerevisiae (assay: transcriptional activation domain activity (GFP:mCherry ratio, weighted mean of sorted bins, harmonized to initial dataset scale) (arbitrary fluorescence ratio units); higher = stronger transcriptional activation). Settings: beta-estradiol 1 µM; induction time 4 h.
Outline: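 Protein tiles carrying barcodes and fused to an estradiol-inducible synthetic transcription factor were placed at the URA3 locus of yeast diploids with a GFP reporter. Following 4 hours at 30 °C in SC with 1 uM beta-estradiol, cells were sorted into 8 GFP:mCherry bins, barcodes were sequenced, and tiles with fewer than 50 reads were discarded. Activation activity is given as the read-weighted mean of bin median fluorescence, averaged across barcodes and linearly mapped to the initial dataset scale.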
With “MCACRLFNQICFINKPCRIVNLSISIVYINWGMLLCVMRSDVLSLYLLIMLPV” the “transcriptional activation domain activity” value was 80000. With “MHPCTLLSFRVFAYFYLLLIPPPPLLYSYLSYTNIYSYIIVLLLLLLFYVTIV” the “transcriptional activation domain activity” value was 54800. For “EKSQNNSNVINETIDHTDIHAHHADAHDDSFIESEEWLSKFIMDSQIDNDLKL”, the “transcriptional activation domain activity” value was 139000. “GEKAEGANGEGSGAEGSRRRPSGRGRGRGRGRGGRGGRGGRATNEAGDEKKEG” was tested, and the “transcriptional activation domain activity” value was 22500. “TIGFVGFVMSLQKGYLKQQFGLFCWVHMSLLIIVLSSHFIVNNILEGLIWFWV” was tested, and the “transcriptional activation domain activity” value was 58700. With “MAGSFFFSFFFLSLFMLFHFLSLSFLIFFFLSSLSSFAFLLLLISPFGPPNPH” the “transcriptional activation domain activity” value was 54400. For “STDALLARLVGHLHINPVSQKLVVAFDKIATCLQEVRACIVQRILPFAQRYKQ”, the “transcriptional activation domain activity” value was 62400. In the case of “FAGIYSLVHFRKVWSSDHFILRKFMFMIEDLYQLYNLFFSWVAMGNFYLIFYI”, the “transcriptional activation domain activity” value is reported as 67800. For “MYVWYSLSFLFPPTSPSLFLFLFYLFIYSLFYFFFYFSPYFFSFFLSSYTLHY”, the “transcriptional activation domain activity” value was 63000. In the case of “RKAEEEEEEEAEAKAEKKKPAHGVPFEGTSKSARARARKRAKKEAEAAAATPA”, the “transcriptional activation domain activity” value is reported as 17800. “AFVLFLVYLTLFCWVCFATSSSWVYSEILNEGQYTESFMPVNYVLLAVLSGII” was tested, and the “transcriptional activation domain activity” value was 64600. “SAGYYSRVSFFFFSNYHLIILHVFFFFFFFVYWVYFSSSDFFFLLGLTIFCFF” was tested, and the “transcriptional activation domain activity” value was 57900. For “TYINYLITSNAGLTATIVHMLLWNYAEVSLGWSWITIANMKKLLRPETYKFWQ”, the “transcriptional activation domain activity” value was 33300. For “RDRGGERDSKPRKTSGSSSNSQHADRGDTRSQKSSRRRRSSRSEHGGETSQHH”, the “transcriptional activation domain activity” value was under 6570. “LPVYQLSVSPWKSKEAMDAWCMAKIESLLLDFKFLNAWVQLLVANNLQQIHIP” was tested, and the “transcriptional activation domain activity” value was 63900. In the case of “WRKQWLVPLLIRYFNQMVLTLIRWFPLRCLYYTLIKGQAYEGLNKEYDADGIH”, the “transcriptional activation domain activity” value is reported as 58300. In the case of “IFFCHGRFLTSRSFWAFLLSLFLLIAPSILFLVFTCPWLWFHMSPSIPIVFSY”, the “transcriptional activation domain activity” value is reported as 51200. For “MQGSGKLSGLIFLSCFFSLLFFFFSFLFFYFFLLSNQLLFFCPNLVLDVALFT”, the “transcriptional activation domain activity” value was 18000. In the case of “MLTWFFSYRLELLPFFYIIFSPIVFLLFSIFLLVLLRSFVCRLICFCLFLQSV”, the “transcriptional activation domain activity” value is reported as 56500. In the case of “MVVIVLQIGVSLYKLLVLLLWYVEWILYLFLLVEDRLLYQNMLLFEAPTLVYT”, the “transcriptional activation domain activity” value is reported as 63300. “TYAIWNCNKWILCILVVVASGVYISSAVILHDIFQSYEYPVLSLPTKMYCLPF” was tested, and the “transcriptional activation domain activity” value was 18700. With “AKSLRLTIDEVKMLHRPVIWYLIVMLVDTLTATYLQYNGFLLHRTHLRETLSV” the “transcriptional activation domain activity” value was 44200. In the case of “DQIYIYQTPRWLCYECLVAMFTMFTIRLVYFWSLHVLNHLLTYKTFLFFFLSC”, the “transcriptional activation domain activity” value is reported as 47400. In the case of “FSLSLHICFIFSRLIMLHCIFSLLKMIPFCAKFFCFFLFLFLFSPFLLYILFV”, the “transcriptional activation domain activity” value is reported as 54000. In the case of “ENKKEEPKSAKPTSKKAEKPVSKKADAETGEKRAADETKPAEKPASKKAKTDA”, the “transcriptional activation domain activity” value is reported as 30800. With “YHFALSYKRWINRVIIMIWCKLWWLRWCAFMQLFFRRNLRYNFWWRWIRVAGV” the “transcriptional activation domain activity” value was 56700. With “RLQRDGQAGAGRGEARGGRGPVAGGQGAQHAGPVRRHRRQRRAGHLHGRKQHQ” the “transcriptional activation domain activity” value was 32800. In the case of “LVAFGMRFGGPTLLKLYFLPWMACHLIFALVPVIITLPMQWANHWIVALTYLH”, the “transcriptional activation domain activity” value is reported as 57900. With “SNPLTSQANRMSSYDKKTNVLGFDDGTFDNKVFNRTNFEEKAPFDIPLDEFFT” the “transcriptional activation domain activity” value was 119000. For “FLCIFSPFSRMISCLVYRSLFCSSYITSINLIVSVSKVVRRFIIRIFPLLFTI”, the “transcriptional activation domain activity” value was 51400. In the case of “EAEAEAAPEAEAAKPKNRGGRPKKAVLPAAAAPAPKEKEEPKPKATAGRKRKA”, the “transcriptional activation domain activity” value is reported as 33400. “FFFFLLFCFSFLYRLLSLYLFLFPFDFFFFSPWFCSNSRFYLRFVSFFPFFFF” was tested, and the “transcriptional activation domain activity” value was 50200. In the case of “VERCHRNIVPNGCAVFQAGGLVVVLVEVSRKSYLASLVPVIVNAILNEHQIVV”, the “transcriptional activation domain activity” value is reported as 65300. With “MPTPGLDHSLQMMPDGNSGVNPSLLGDFDLFSASAYQAELDYLSFPFMDSFLA” the “transcriptional activation domain activity” value was 140000. For “LLWGLALVCAFAFGRRRRRWWWWWWWWWLLLLLLLFIFFFWICLSLRFLLWTR”, the “transcriptional activation domain activity” value was 54100. For “MVQCASTECSNEGVSQCGRCKQRFYCGAECQQKDWPAHKKNCKRPNAPPPQMS”, the “transcriptional activation domain activity” value was 17500. In the case of “DGEATATPAKPKTPRKRKVKAADSAEEGTGDAEGSPKKKAGGRKKKADVAVKE”, the “transcriptional activation domain activity” value is reported as 38600. In the case of “KFIGYQWAYFAVISGALLYAWSRVIMLFVLRILPQDIRLIAFIITSIYCLILL”, the “transcriptional activation domain activity” value is reported as 24900. In the case of “IRGMCPEKPQIREIVYLLRGLIVNRILLMTLKKRWNVQYGLHSTRDPIAVPFH”, the “transcriptional activation domain activity” value is reported as 53200. With “VLEQLNLINHFYQFSLKFFLDIFEYVLRQNPNLQNVTDHHARREILFNDIFLV” the “transcriptional activation domain activity” value was 33600. “VDNQFLSTRSIVTEACRKRGIYLTWIDSDPDILNYLQLSTFQFIVLLMLPLTP” was tested, and the “transcriptional activation domain activity” value was 42900. In the case of “ERDKRDDKDRERRHHKRSRHHDSDEERREGSSSRRHRHKSRRSKSPSSKVNEE”, the “transcriptional activation domain activity” value is reported as 22800.
